Measured values taken from paper doi:10.1101/2024.04.20.590211 (bioRxiv, 2024).

Target: FluPolB, influenza B/Memphis/2003 polymerase heterotrimer (wild type) (influenza B virus B/Memphis/2003, UniProt Q5V8Z9;Q5V8Y6;Q5V8X3)
Assay: SEC

B1: hANP32A 144-249 (LCAR alone) (domain or fragment)
chain: YLDGYDRDDKEAPDSDAEGYVEGLDDEEEDEDEEEYDEDAQVVEDEEDEDEEEEGEEEDVSGEEEEDEEGYNDGEVDDEEDEEELGEEERGQKRKREPEDEGEDDD
binding result: binds
